Data as given in patent US20250108100A1, “C-TERMINAL FRAGMENT OF APOLIPOPROTEIN E AND APPLICATION THEREOF IN INHIBITING y-SECRETASE ACTIVITY” (SYNPHATEC (SHANGHAI) BIOPHARMACEUTICAL TECHNOLOGY CO., LTD., priority 2022, published 2025).
“Also recorded” adds a separate entry of the source.

Key:
5×FAD mice = assay: Distribution of neuronally expressed ApoE around amyloid plaques in 5×FAD mice (immunofluorescence); type: in vivo, mouse
Description: Mice were anesthetized with isoflurane and perfused with 4% PFA. Dissected mouse brains were fixed overnight in 4% PFA and cryoprotected overnight in 30% sucrose. A cryostat (Leica CM3050S) was used to obtain frozen brain slices ([…]) from fixed and cryoprotected mouse brains. Floating slices were washed 3 times with 1×PBS and then permeabilized with 0.5% Triton-X in 1×PBS for 30 minutes. After blocking with 5% BSA in 1×PBS at room temperature for 1 h, the slices were incubated overnight at 4° C. in 5% BSA (in 1×PBS) buffer comprising the primary antibody. Slices were washed 3 times with 1×PBS and incubated with secondary antibody diluted in 5% BSA (1×PBS) buffer for 1 hour at room temperature. Samples were then washed 3 times with 1×PBS and mounted with Prolong Gold Antifade Mountant (Life Technology).
After being deeply anesthetized with isoflurane, mice (5 weeks old) were placed in a stereotaxic apparatus (RWD Instruments). The zero point (x, y, z, 0, 0, 0) is Bregma. Lentivirus (lentivirus-GFP, lentivirus-ApoE and lentivirus-ApoE-IRES-GFP) and AAV (AAV2/9-hSyn-EGFP-WPRE-pA and AAV2/9-hSyn-ApoECT; purchased from Shanghai Taitool Bioscience Co. Ltd.) were injected into the cortex (x, y, z, +/−1.6, 0, −1) or hippocampus (x, y, z, +/−1.5, −2, −1.5), injected 1 ul on each injection site. The mice were then returned to their cages for rehabilitation after surgery.

APPSW = assay: Aβ40 produced by Swedish APP mutant (APPSW) in HEK 293T cells (ELISA); type: cell-based, human; conditions: HEK 293T cells expressing APPSW
Description: 48 hours after transfection of HEK 293T cells and N2A cells, or 4.5 days after lentivirus infection of neurons, media and lysates were collected. Aβ40 and Aβ42 in the culture medium and cell lysates were detected by an Aβ ELISA kit as indicated in the protocol. (Invitrogen Technology; KHB3481 for human Aβ40, KHB3441 for human Aβ42 and KMB3481 for mouse Aβ40).

APPΔΔICD = assay: Aβ40 produced from APPΔΔICD co-expressed with BACE1 in HEK 293T cells (ELISA); type: cell-based, human
Description: The experiment was performed according to the standard procedure in the ELISA analysis kit of Invitrogen Company. • a) The target protein was expressed in HEK 293T cell line. Cells were subcultured one day before transfection, and transfection was performed when the degree of cell adhesion reached 70%-80%. […]
48 hours after transfection of HEK 293T cells and N2A cells, or 4.5 days after lentivirus infection of neurons, media and lysates were collected. Aβ40 and Aβ42 in the culture medium and cell lysates were detected by an Aβ ELISA kit as indicated in the protocol. […]

APP = assay: Cell surface expression of APP in HEK 293T cells (surface biotinylation, Western blot); type: cell-based
Description: FIGS. 29A-29K show ApoE CT is still able to regulate APP metabolism when α- or β-secretase is inhibited. […] N=9. FIGS. 29C-29D show ELISA assay and statistical analysis of Western blot assay for the effects of ApoE CT on Aβ production from co-expressed APP and BACE1 in HEK 293T cells treated with 1 μM ADAM10 inhibitor GI254023X; control group received no inhibitor treatment. FIG. 29C: Aβ40 in cell culture medium; FIG. 29D: Aβ40 in cell lysates. N=6. FIGS. 29E-29F show Western blot detection and statistical analysis of the effects of ApoE CT on the production of α-CTF from co-expressed APP in HEK 293T cells treated with 5 μM BACE1 inhibitor AZD3839; the control group received no inhibitor treatment. N=10. FIGS. 29G-29H show Western blot detection and statistical analysis of α-CTF produced by co-expressing APPM596V and GFP or ApoE CT in HEK 293T cells, respectively. N=7. […] Cell surface proteins of HEK 293T cells expressing GFP(−) and ApoE CT(+) were labeled with sulfo-N-hydroxysuccinimide-biotin and isolated with streptavidin-coupled agarose beads.

APP mutants = assay: α-CTF produced by APP variants with AD-related mutations co-expressed in HEK 293T cells; type: cell-based, human
Description: Plasmids were transfected in HEK 293T or N2A cells for 36-48 hours and then lysed in cell lysis buffer [10% 1M tris-HCl (pH=6.8), 4% SDS, 20% glycerol, 0.01% bromophenol blue]. Lysates were shaken at room temperature for 10 min, then boiled for 10 min, and centrifuged at 12,000×g for 10 min. Proteins were run on 8% or 12% Tris-glycine SDS-PAGE and transferred to PVDF membranes (Life Technologies). Samples were incubated overnight at 4° C. with primary antibody diluted in 5% BSA buffer (in 1×TBST). After washing 3 times with 1×TBST, they were incubated with secondary antibody diluted in 5% BSA buffer (in 1×TBST) for 2 hours at room temperature. Finally, after washing 3 times with 1×TBST, the signal was detected by ECL Western blotting substrate (Solarbio, PE0010).

B1: ApoE CT: C-terminal fragment of ApoE, positions 216-299 of SEQ ID NO: 12; SEQ ID NO: 33 (protein)
chain: ARMEEMGSRTRDRLDEVKEQVAEVRAKLEEQAQQIRLQAEAFQARLKSWFEPLVEDMQRQWAGLVEKVQAAVGTSAAPVPSDNH
- migration to and accumulation around amyloid plaques (5×FAD mice; AAV expression in cortex, DG and CA3 neurons): migrated to the subiculum and accumulated in amyloid plaques
- accumulation around amyloid plaques (5×FAD mice; lentiviral vectors): a similar distribution pattern was detected around amyloid plaques
- Aβ40 in cell lysates, reduced by (APPSW): approximately 43%
- Aβ40 in the medium, reduced by (APPSW): approximately 76%
- Aβ40 produced by APPΔΔICD (APPΔΔICD): no longer reduces Aβ produced by APPΔΔICD; also recorded: does not affect Aβ40; also recorded: failed to reduce Aβ40
- APP expression on the cell surface (APP): did not alter APP expression on the cell surface
- effect on α-CTF levels, Icelandic mutation (APP mutants; APP A673T): no difference
- ability to increase α-CTF levels compared to WT APP (APP mutants; APP fAD mutations near γ cleavage site (T714I, V717F, L723P)): significantly reduced
- α-CTF produced by all tested APP mutants (APP mutants; HEK 293T cells): increased α-CTF
- α-CTF produced by APPM596V (APP mutants; HEK 293T cells, APP mutation that cannot conduct β-cleavage): able to increase α-CTF
- effect on α-CTF levels, WT APP vs APP mutants (APP mutants; fAD mutations near β- or α-cleavage site (KM670/671NL, E693K, E693A)): no statistically significant difference
